As usually defined, the koff is the first-order rate constant of dissociation. A low value points to slow dissociation. The kon is the rate constant with which the complex forms. A low value points to slower complex formation.

Experiment [1] deals with human immunoglobulin G drug separated from human plasma (human). Description: SPR, Biacore 3000, human IgG immobilized on CM5, peptide as analyte, 25 C, pH 7.4, 1:1 model.
Experiment [2] has the same target. Description: SPR, Biacore 3000, human IgG immobilized; reference C-G29A/S33E.1d. On the technique in general: In SPR one partner is held on a chip, and binding of the other changes the refractive index at the surface.

As to “C-G29A/S33E/K7E/H18D/V40D/A46D/Q55E.1d (designed binder)”, in experiment [1], the Ka stood at 5.7e+06 M⁻¹, the koff turned out to be 0.00519 s⁻¹ and the kon turned out to be 29000 M⁻¹ s⁻¹. Besides, in experiment [2], the affinity constant KA relative to C-G29A/S33E.1d came to 0.1 fold.

For “C-G29A/S33E/K7E/A46E.1d (designed binder)”, in experiment [1], the Ka amounted to 3.9e+07 M⁻¹, the off-rate (koff) stood at 0.00709 s⁻¹ and the kon is 276000 M⁻¹ s⁻¹.

The values are drawn from US20160215026A1.
